Patent US20230265217A1

B1: 7-26 (VHH)
VHH: EVQLVESGGGLVQPGGSLRLSCAASGSTFSINAMGWFRQAPGKEREFVAGITSSGGYTNYADSVKGRFTISADNSKNTAYLQMNSLKPEDTAVYYCAADGVPEYSDYASGPVWGQGTLVTVSS
B2: 3-31 (VHH)
VHH: B1 VHH

Legend:
Settings in all cases: remark: other sources report otherwise
[1] = molecular target: T1, SARS-CoV-2 S protein trimer (Kappa B.1.617.1 India variant) [SPN-C52Hr] (SARS-CoV-2), P0DTC2; experiment: binding kinetics, Carterra SPR
[2] = molecular target: T2, SARS-CoV-2 S protein trimer (Delta B.1.617.2 India variant) [SPN-C52He] (SARS-CoV-2), P0DTC2; experiment: binding kinetics, Carterra SPR
[3] = molecular target: T3, SARS-CoV-2 S protein trimer (Beta B.1.351 SA variant) [SPN-C52Hk] (SARS-CoV-2), P0DTC2; experiment: binding kinetics, Carterra SPR
[4] = molecular target: SARS-CoV-2 S protein trimer [SPN-C52H9] (SARS-CoV-2), P0DTC2; experiment: binding kinetics, Carterra SPR
[5] = molecular target: T4, SARS-CoV-2 S protein trimer (Alpha B.1.1.7 UK variant) [SPN-C52H6] (SARS-CoV-2), P0DTC2; experiment: binding kinetics, Carterra SPR
[6] = molecular target: S1 RBD L452R E484Q (Acro) (SARS-CoV-2), P0DTC2; experiment: Carterra SPR
[7] = molecular target: T1, SARS-CoV-2 S protein trimer (Kappa …); experiment: Carterra SPR
[8] = molecular target: SARS-CoV-2 S protein trimer [SPN-C52H7] (SARS-CoV-2), P0DTC2; experiment: Carterra SPR
[9] = molecular target: SARS-CoV-2 S protein trimer (P.1 Gamma Brazil variant) [SPN-C52Hg] (SARS-CoV-2), P0DTC2; experiment: Carterra SPR
[10] = molecular target: T2, SARS-CoV-2 S protein trimer (Delta …); experiment: Carterra SPR
[11] = molecular target: T3, SARS-CoV-2 S protein trimer (Beta …); experiment: Carterra SPR
[12] = molecular target: T4, SARS-CoV-2 S protein trimer (Alpha …); experiment: Carterra SPR

Binder	Kd [1]	koff [1]	kon [1]	Kd [2]	koff [2]	kon [2]	Kd [3]	koff [3]	kon [3]	Kd [4]	koff [4]	kon [4]	Kd [5]	koff [5]	kon [5]	Kd [6]	also measured
B1	< 0.00852 nM	< 1e-05 s⁻¹	1.17e+06 M⁻¹ s⁻¹	< 0.0104 nM	< 1e-05 s⁻¹	958000 M⁻¹ s⁻¹	< 0.00808 nM	< 1e-05 s⁻¹	1.24e+06 M⁻¹ s⁻¹	< 0.011 nM	< 1e-05 s⁻¹	911000 M⁻¹ s⁻¹	< 0.00965 nM	< 1e-05 s⁻¹	1.04e+06 M⁻¹ s⁻¹	18 nM	–
B2	< 0.01 nM	< 1e-05 s⁻¹	1e+06 M⁻¹ s⁻¹	< 0.0107 nM	< 1e-05 s⁻¹	938000 M⁻¹ s⁻¹	< 0.0098 nM	< 1e-05 s⁻¹	1.02e+06 M⁻¹ s⁻¹	< 0.0136 nM	< 1e-05 s⁻¹	734000 M⁻¹ s⁻¹	< 0.0108 nM	< 1e-05 s⁻¹	925000 M⁻¹ s⁻¹	16.2 nM	Kd [7]: 0.0129 nM; koff [7]: 1e-05 s⁻¹; kon [7]: 777000 M⁻¹ s⁻¹; Kd [8]: < 0.0167 nM; koff [8]: < 1e-05 s⁻¹; kon [8]: 600000 M⁻¹ s⁻¹; Kd [9]: < 0.012 nM; koff [9]: < 1e-05 s⁻¹; kon [9]: 834000 M⁻¹ s⁻¹; Kd [10]: 0.0134 nM; koff [10]: 1e-05 s⁻¹; kon [10]: 744000 M⁻¹ s⁻¹; Kd [11]: 0.0117 nM; koff [11]: 1e-05 s⁻¹; kon [11]: 851000 M⁻¹ s⁻¹; Kd [12]: 0.0143 nM; koff [12]: 1e-05 s⁻¹; kon [12]: 699000 M⁻¹ s⁻¹
